Biological target: NLS-PpsR2-VP16 (Rhodopseudomonas palustris; H. simplex)
Test: cell-based or functional assay

BphP1-mCherry-TetR (from UniProt P04483 1-207)
EGFP signal, illuminated over dark-treated cells (pTRE-Tight-EGFP reporter, flow cytometry): > 27 fold
Rluc8 activation with 740 nm light against 470 nm light in cultured HeLa cells: 18 fold
Rluc8 light-to-dark signal ratio in mouse liver after hydrodynamic transfection (pKA-207I10), 48 h: 5.7 fold
Rluc8 signal, 740 nm illuminated mice over mice in darkness, HeLa cells injected subcutaneously, 48 h: 32 fold
SEAP level, 740 nm light over darkness, after 12 h: 3 fold
SEAP level, 740 nm light over darkness, after 48 h (pTRE-Tight-SEAP reporter, HeLa): 40 fold
SEAP reporter expression against the PhyB-PIF6 system, same reporter plasmid: 2 fold
decrease of SEAP production by 12 h of 636 nm light after 12 h of 740 nm light, against cells kept in darkness: 2.3 fold
half-time of SEAP accumulation under 740 nm light: 18 h
rate of SEAP decrease in darkness after 636 nm illumination, against darkness alone: 2 fold

Reference: US20180346523A1
